From the supplement of paper PMC7125110
± gives the standard error. For part of these data: Fewer inactive variants are shown than the library holds.

B1: glmS ribozyme (parent)
chain: AUAAAAGCGCCAGAACUACAGAAAUGUAGUUGACGAGGAGGAGGUUUAUCGAAUUUUCGGCGGAUGCCUCCAAA

Legend:
Details in all cases: with glucosamine-6-phosphate
glucosamine-6-phosphate [1] = variants of: B1; experiment: kcat; higher = faster cleavage; RNA array
Method in brief: (§1)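 Tiles of sequenced MiSeq chips were imaged over ~14 h at 37 °C. On them, barcoded ribozyme variants had been transcribed in situ by E. coli RNA polymerase and were tracked via a hybridised Cy3 probe while glucosamine-6-phosphate (40 μM to 10 mM) in HEPES/KCl/Mg(OAc)2 buffer flowed in. Per-tile medians, normalised to baseline and to non-cleaving reference variants, were fit to one- or two-exponential decays for kobs, and weighted Michaelis–Menten fits gave kcat and KM.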

glucosamine-6-phosphate [2] = variants of: B1; experiment: self-cleavage kobs at 10000 uM GlcN6P; higher = faster cleavage; RNA array
Method in brief: as §1

glucosamine-6-phosphate [3] = variants of: B1; experiment: KM; higher = weaker cofactor use; RNA array
Method in brief: as §1

glucosamine-6-phosphate [4] = variants of: B1; experiment: self-cleavage kobs at 640 uM GlcN6P; higher = faster cleavage; RNA array
Method in brief: as §1

glucosamine-6-phosphate [5] = variants of: B1; experiment: self-cleavage kobs at 2500 uM GlcN6P; higher = faster cleavage; RNA array
Method in brief: as §1

glucosamine-6-phosphate [6] = variants of: B1; experiment: self-cleavage kobs at 160 uM GlcN6P; higher = faster cleavage; RNA array
Method in brief: as §1

glucosamine-6-phosphate [7] = variants of: B1; experiment: self-cleavage kobs at 40 uM GlcN6P; higher = faster cleavage; RNA array
Method in brief: as §1

Variant | kcat (glucosamine-6-phosphate [1]) | self-cleavage kobs at 10000 uM GlcN6P (glucosamine-6-phosphate [2]) | KM (glucosamine-6-phosphate [3]) | self-cleavage kobs at 640 uM GlcN6P (glucosamine-6-phosphate [4]) | self-cleavage kobs at 2500 uM GlcN6P (glucosamine-6-phosphate [5]) | self-cleavage kobs at 160 uM GlcN6P (glucosamine-6-phosphate [6]) | self-cleavage kobs at 40 uM GlcN6P (glucosamine-6-phosphate [7])
U30C G63U | 1.08e-05 ± 3e-06 s⁻¹ | < 1e-05 s⁻¹ | – | – | – | – | –
U30G C70A | 6.7e-05 ± 4.4e-06 s⁻¹ | 6.09e-05 ± 8.7e-06 s⁻¹ | 410 ± 130 µM | 3.81e-05 ± 9.7e-06 s⁻¹ | 6.45e-05 ± 9.7e-06 s⁻¹ | – | –
U30A G32A | 0.00147 ± 0.00062 s⁻¹ | 0.0012 ± 0.00022 s⁻¹ | – | 0.000192 ± 3.2e-05 s⁻¹ | 0.000485 ± 9.6e-05 s⁻¹ | 0.000109 ± 2.5e-05 s⁻¹ | –
G29U C61A | 1.26e-05 ± 2.3e-06 s⁻¹ | – | – | – | – | – | < 1e-05 s⁻¹
G29U C50A G60U | 1e-05 ± 4.9e-06 s⁻¹ | – | – | – | < 1e-05 s⁻¹ | – | –
U30G G41C | 0.00013 ± 5.4e-06 s⁻¹ | 0.000101 ± 2.7e-05 s⁻¹ | 2760 ± 240 µM | – | 6.27e-05 ± 1.2e-05 s⁻¹ | – | –
U30G G41A | 0.000293 ± 2.6e-05 s⁻¹ | 0.000248 ± 4.4e-05 s⁻¹ | 881 ± 160 µM | 0.000124 ± 2e-05 s⁻¹ | 0.00025 ± 4.4e-05 s⁻¹ | 4.24e-05 ± 1.1e-05 s⁻¹ | –
U31C C71U | 0.00657 ± 0.0031 s⁻¹ | 0.00504 ± 0.00056 s⁻¹ | – | 0.00111 ± 0.00013 s⁻¹ | 0.00536 ± 0.00083 s⁻¹ | 0.000289 ± 3.6e-05 s⁻¹ | 0.000177 ± 1.7e-05 s⁻¹
U31C U47G | 0.000887 ± 0.00023 s⁻¹ | 0.00102 ± 0.00013 s⁻¹ | 1440 ± 640 µM | 0.000292 ± 4.5e-05 s⁻¹ | 0.000426 ± 7e-05 s⁻¹ | 8.85e-05 ± 1.5e-05 s⁻¹ | 3.36e-05 ± 9.1e-06 s⁻¹
U30G U45A | 0.0197 ± 0.0054 s⁻¹ | 0.0239 ± 0.0066 s⁻¹ | 1680 ± 600 µM | 0.00474 ± 0.0013 s⁻¹ | 0.0101 ± 0.0026 s⁻¹ | 0.00157 ± 0.00042 s⁻¹ | 0.000528 ± 9.3e-05 s⁻¹
U30G U45G | 0.00151 ± 0.00041 s⁻¹ | 0.00103 ± 0.00021 s⁻¹ | 2200 ± 950 µM | 0.000382 ± 6.4e-05 s⁻¹ | 0.00102 ± 0.00015 s⁻¹ | 7.13e-05 ± 2.2e-05 s⁻¹ | 3.05e-05 ± 1.4e-05 s⁻¹
G29U U31C | 0.000449 ± 0.00016 s⁻¹ | 0.000407 ± 3.7e-05 s⁻¹ | – | 9.18e-05 ± 8.9e-06 s⁻¹ | 0.00015 ± 1.8e-05 s⁻¹ | 4.01e-05 ± 1.3e-05 s⁻¹ | –
U30C U31G | 0.00836 ± 0.0018 s⁻¹ | 0.00701 ± 0.00093 s⁻¹ | 2370 ± 690 µM | 0.00249 ± 0.00044 s⁻¹ | 0.00353 ± 0.0008 s⁻¹ | 0.000404 ± 0.0001 s⁻¹ | 0.000147 ± 1.9e-05 s⁻¹
G29U G32C G43U A53U | 1.74e-05 ± 3.6e-06 s⁻¹ | – | 9610 ± 3900 µM | – | – | – | < 1e-05 s⁻¹
U30A C68U | 0.000818 ± 0.00016 s⁻¹ | 0.000776 ± 9.4e-05 s⁻¹ | 1730 ± 610 µM | 0.000204 ± 2.7e-05 s⁻¹ | 0.000417 ± 6.6e-05 s⁻¹ | 9.37e-05 ± 2e-05 s⁻¹ | 3.27e-05 ± 1.2e-05 s⁻¹
